In PMC4133262, “Discovery of a Eukaryotic Pyrroloquinoline Quinone-Dependent Oxidoreductase Belonging to a New Auxiliary Activity Family in the Database of Carbohydrate-Active Enzymes” (PLoS ONE, 2014):

T1: PQQ domain of CcSDH (Coprinopsis cinerea, UniProt A0A0A8IDB7)
T1 construct: gene PDH; PQQ dehydrogenase domain only: N-terminal 221 residues (heme domain) and last 77 C-terminal residues (with CBM1) removed; begins at T222 (primer encodes TFVSC); secreted from Pichia pastoris
T1 sequence (A0A0A8IDB7 240-649): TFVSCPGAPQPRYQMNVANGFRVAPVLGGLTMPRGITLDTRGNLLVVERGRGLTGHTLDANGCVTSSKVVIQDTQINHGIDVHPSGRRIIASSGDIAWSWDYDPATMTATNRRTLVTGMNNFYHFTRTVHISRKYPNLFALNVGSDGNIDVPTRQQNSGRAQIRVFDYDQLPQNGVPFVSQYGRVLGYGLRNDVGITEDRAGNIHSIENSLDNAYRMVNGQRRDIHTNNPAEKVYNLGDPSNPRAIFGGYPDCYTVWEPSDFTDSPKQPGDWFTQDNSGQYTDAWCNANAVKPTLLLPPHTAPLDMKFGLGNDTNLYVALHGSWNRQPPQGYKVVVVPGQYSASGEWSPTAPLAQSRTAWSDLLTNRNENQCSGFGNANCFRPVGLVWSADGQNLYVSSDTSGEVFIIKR


Columns and labels:
PQQ domain of CcSDH = biological target: T1, PQQ domain of CcSDH; experiment: isothermal titration calorimetry, single-site model; assay type: binding
purified protein = substrate: O=CC(=O)[C@@H](O)[C@H](O)[C@H](O)CO; experiment: purified protein; assay type: biochemical, Coprinopsis cinerea; details: 50 mM Tris-HCl pH 8.5, 1 µM PQQ, 1 mM CaCl2, 50 µM cytochrome c, 30 °C, background reduction by D-glucosone subtracted

Row | Kd (PQQ domain of CcSDH) [nM] | Molecule | Km (purified protein) | kcat (purified protein) [s⁻¹] | kcat/Km (purified protein) [M⁻¹ s⁻¹]
1 | 1.11 | O=C(O)c1cc(C(=O)O)c2c(n1)C(=O)C(=O)c1cc(C(=O)O)[nH]c1-2 [Pyrroloquinoline quinone] | – | – | –
2 | – | CcSDH (C. cinerea sugar dehydrogenase), full-length recombinant (Coprinopsis cinerea) (protein, mature protein without 18-residue signal peptide (726-aa ORF); AA8 cytochrome b + PQQ dehydrogenase + CBM1 domains; secreted from Pichia pastoris (pPICZalpha), glycosylated, 98 kDa on SDS-PAGE; genome locus Chromosome 6:1274274-1277156) QGSPTQWYDSITGVTFSRFYQQDTDASWGYIFPSASGGQAPDEFIGLFQGPASAGWIGNSLGGSMRNNPLLVGWVDGSTPRISARWATDYAPPSIYSGPRLTILGSSGTNGNIQRIVYRCQNCTRWTGGAGGIPTTGSAVFGWAFHSTTKPLTPSDPSSGLYRHSHAAQYGFDIGNARTTLYDYYLQQLTNAPPLSGGAPTQPPTQQPPTTTAPPPPPPSSTFVSCPGAPQPRYQMNVANGFRVAPVLGGLTMPRGITLDTRGNLLVVERGRGLTGHTLDANGCVTSSKVVIQDTQINHGIDVHPSGRRIIASSGDIAWSWDYDPATMTATNRRTLVTGMNNFYHFTRTVHISRKYPNLFALNVGSDGNIDVPTRQQNSGRAQIRVFDYDQLPQNGVPFVSQYGRVLGYGLRNDVGITEDRAGNIHSIENSLDNAYRMVNGQRRDIHTNNPAEKVYNLGDPSNPRAIFGGYPDCYTVWEPSDFTDSPKQPGDWFTQDNSGQYTDAWCNANAVKPTLLLPPHTAPLDMKFGLGNDTNLYVALHGSWNRQPPQGYKVVVVPGQYSASGEWSPTAPLAQSRTAWSDLLTNRNENQCSGFGNANCFRPVGLVWSADGQNLYVSSDTSGEVFIIKRMSGPIVQPPITQPPITTSPPTPTTPPVVQPPTTVAPPQASQTLWGQCGGQGWTGPTLCPANSVCRESNQWYSQCVPA | 7.9 (±0.3) mM | 74.1 ± 1.4 | 9370
